Assay results published in article PMC6238531, “The ER morphology-regulating lunapark protein induces the formation of stacked bilayer discs” (Life Science Alliance, 2018).

Target: T1, SBP-tagged full-length human Lnp (human, UniProt Q9C0E8 1-428)
T1 construct: lunapark (Lnp), human, full length; a tobacco etch virus protease cut site stands between Lnp and the SBP tag; Membrane protein with two TM segments, kept in 0.05% Triton X-100 in the pull-down; also called lunapark; SBP-tagged human Lnp; source: S. cerevisiae (pRS425, GAL1 promoter), purified in Triton X-100 (streptavidin resin, biotin elution, SEC on Superose 6); not shown: SBP, C-terminal, kept
T1 sequence (looked up): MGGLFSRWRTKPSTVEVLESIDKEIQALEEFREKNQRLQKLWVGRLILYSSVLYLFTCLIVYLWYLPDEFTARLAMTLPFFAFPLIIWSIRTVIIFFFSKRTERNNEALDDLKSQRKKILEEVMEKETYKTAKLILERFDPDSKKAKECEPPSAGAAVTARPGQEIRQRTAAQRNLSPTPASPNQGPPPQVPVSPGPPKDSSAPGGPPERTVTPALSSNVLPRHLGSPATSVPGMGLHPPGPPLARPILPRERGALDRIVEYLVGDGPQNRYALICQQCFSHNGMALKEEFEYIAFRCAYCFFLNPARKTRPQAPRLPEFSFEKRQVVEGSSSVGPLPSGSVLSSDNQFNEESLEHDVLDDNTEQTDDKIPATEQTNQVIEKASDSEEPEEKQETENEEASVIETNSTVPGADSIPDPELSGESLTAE
Experiment: pull-down; SBP-tagged human Lnp mixed with His10-tagged Lnp (molar ratio 1:3 or 1:5), 1 h at 4°C in 20 mM Hepes pH 7.5, 100 mM KCl, 1 mM dithiothreitol, 0.05% Triton X-100; held on streptavidin resin, washed, eluted with 2 mM biotin; SDS-PAGE and Coomassie blue staining
Conditions: both partners purified

binding result: binds
B1: His10-tagged full-length human Lnp (natural protein, UniProt Q9C0E8 1-428, looked up)
chain: T1 sequence (looked up)
notes: lunapark (Lnp), human, full length, cloned into pET21b; also called lunapark; source: E. coli BL21-CodonPlus (DE3)-RIPL, purified in Triton X-100 (Ni-NTA, SEC on Superose 6); not shown: His10, C-terminal, kept
